From PMC11659421, “Structural insights into the enzymatic breakdown of azomycin-derived antibiotics by 2-nitroimdazole hydrolase (NnhA)” (Communications Biology, 2024)
Changes are numbered by the printed parent chain. Names may count otherwise.

Experiments:
[1] = test system: O=[N+]([O-])c1ncc[nH]1; experiment: nitrite release, Griess reaction, Michaelis-Menten plot; type: biochemical, Mycobacterium sp. JS330; conditions: 25-400 µM 2NI, 25 °C, no metal or cofactor
Description: nitrite release, Griess reaction, Michaelis-Menten plot on NnhA

[2] = target: the molecule itself; experiment: SEC; Superdex 200 prep column during purification, 20 mM Tris pH 7.5, 50 mM NaCl; molecular weight estimate assumes a globular complex
[3] = target: the molecule itself; experiment: crystal structure; crystals in space groups P1 (6 molecules in the asymmetric unit) and H32 (one protomer, hexamer by crystallographic symmetry); grown in polyacrylic acid 5100, MgCl2, HEPES pH 7.2, or PEG 3350 with sodium malonate pH 7.0; data at 100 K
[4] = 1.1 µM enzyme, soluble variant from directed evolution

NnhA (Mycobacterium sp. JS330)
Km ([1]; 1.1 µM enzyme): 93.1 ± 14.1 µM
kcat ([1]; 1.1 µM enzyme): 0.0212 ± 0.00267 s⁻¹
kcat/Km ([1]; 1.1 µM enzyme): 200 M⁻¹ s⁻¹

NnhA (Mycobacterium sp. JS330; C352A/G14D/K73R/T2I)
Km ([1]; 3.3 µM enzyme): 24.5 ± 3.3 µM
kcat ([1]; 3.3 µM enzyme): 0.0122 ± 0.000333 s⁻¹
kcat/Km ([1]; 3.3 µM enzyme): 500 M⁻¹ s⁻¹

NnhA (Mycobacterium sp. JS330; G14D/K73R/T2I)
Km [1, 4]: 109.8 ± 7.6 µM
kcat [1, 4]: 0.3 ± 0.007 s⁻¹
kcat/Km [1, 4]: 2730 M⁻¹ s⁻¹

B1: soluble NnhA (2-nitroimidazole nitrohydrolase A, T2I-G14D-K73R variant) (enzyme)
chain: MITVDKRPSSRGYDDWRLSDIPQYKDGISTYEFVRATHEADYRTHQAEPVAGRTFGFNGIGRLTEVALHMPTRYTLHDQSSQYKESPSFFQGLMGVPDRGPVDLAAFQRETEELATAFENNGIKVHWVDYPEEPANPYGPLMGHVFLSWGSIWRGGSVISRFGFLPGMVGVSEYLAKWAWNTLNIPPLVAITEGAMEPGACNMIADEVLVTCLSASYDQRGTDQLVAAISKTSGTEEFHNLQLRPAVEGFFNKATGACAHPDININAIDVGKLVVSPAALDWDARTWLYDNNFELIEADPDEQREFLAPCNVLLLEPGKVIAHADCHKTNQKIRDAGVEVIEVTGTEIRKACGGIKCRVMQINREPGPTLADVRNRVWR
notes: 2-nitroimidazole nitrohydrolase A (NnhA) of Mycobacterium sp; JS330, UniProt F4ZCI3.1; electron density from R11 to R379 at the C-terminus; Variant found by four rounds of directed evolution (error-prone PCR); also called NnhA-T2I-G14D-K73R; soluble T2I, G14D, K73R NnhA mutant; source: no nickel column; not shown: His6, N-terminal, kept
stoichiometry N [2]: ~4
stoichiometry N [3]: 6

B2: NnhA-T2I-G14D-K73R-C357A (enzyme)
chain: B1 chain with C357A
notes: 2-nitroimidazole nitrohydrolase A (NnhA) of Mycobacterium sp; JS330, UniProt F4ZCI3.1; also called NnhA C357A; source: no nickel column
stoichiometry N [3]: 6
